Test results taken from paper PMC3816987 (Journal of molecular recognition : JMR, 2010).

B1: CCCTC-binding factor (Ctcf) phage clone, 136G-400T (domain or fragment, mouse, UniProt Q61164 136-400, looked up)
chain: GAYENEVSKEGLAESEPMICHTLPLPEGFQVVKVGANGEVETLEQGELPPQEDSSWQKDPDYQPPAKKTKKTKKSKLRYTEEGKDVDVSVYDFEEEQQEGLLSEVNAEKVVGNMKPPKPTKIKKKGVKKTFQCELCSYTCPRRSNLDRHMKSHTDERPHKCHLCGRAFRTVTLLRNHLNTHTGTRPHKCPDCDMAFVTSGELVRHRRYKHTHEKPFKCSMCDYASVEVSKLKRHIRSHTGERPFQCSLCSYASRDTYKLKRHMRT
modifications: biotin on the C-terminal biotinylation tag (E. coli BirA ligase)
B2: Hmg. nucleosomal binding domain 2 (Hmgn2) phage clone, 1M-56K (domain or fragment)
chain: not shown
modifications: biotin on the C-terminal biotinylation tag (E. coli BirA ligase)
B3: Regulated endocrine-specific protein 18 (Resp18) phage clone, 68V-134K (domain or fragment, mouse, UniProt P47939-1 68-134, looked up)
chain: VPEGMFWADDIAYELMTKKVEHLSRLHPQYPCRKDMKAVSPTANAGVRSKQEEKLQLLSPQKSPTVK-{biotinylation tag(biotin)}
B4: IQ motif containing GTPase activating protein 2 (Iqgap2) phage clone, 1232E-1368E (domain or fragment, mouse, UniProt Q3UQ44 1232-1368, looked up)
chain: EKSDLLNELLESLGEVPTVESFLGEGAVDPNDPNKENTLNQLSKTEISLSLTSKYDVKDGEAVDGRSLMIKTKKLIIDVTRNQPGSTLTEILETPATGQQELEHAKDMESRAVVDSRTPEEGKQSQAVIEDARLPLE
modifications: biotin on the C-terminal biotinylation tag (E. coli BirA ligase)
B5: Tubby like protein 1 (Tulp1) phage clone, 125D-243E (domain or fragment, mouse, UniProt Q9Z273 125-243, looked up)
chain: DDDEEEEEKKEGKKEKSSLPPKKAPKEREKKAKALGPRGDVGSPDAPRKPLRTKKKEVGEGTKLRKAKKKGPGETDKDPAGSPAALRKEFPAAMFLVGEGGAAEKGVKKKGPPKGSEEE
modifications: biotin on the C-terminal biotinylation tag (E. coli BirA ligase)

Key:
[1] = molecular target: T1, GST fusion protein of Tulp1-N (1M-298Q) (mouse, UniProt Q9Z273 1-298); assay: phage binding assay
T1 sequence (looked up): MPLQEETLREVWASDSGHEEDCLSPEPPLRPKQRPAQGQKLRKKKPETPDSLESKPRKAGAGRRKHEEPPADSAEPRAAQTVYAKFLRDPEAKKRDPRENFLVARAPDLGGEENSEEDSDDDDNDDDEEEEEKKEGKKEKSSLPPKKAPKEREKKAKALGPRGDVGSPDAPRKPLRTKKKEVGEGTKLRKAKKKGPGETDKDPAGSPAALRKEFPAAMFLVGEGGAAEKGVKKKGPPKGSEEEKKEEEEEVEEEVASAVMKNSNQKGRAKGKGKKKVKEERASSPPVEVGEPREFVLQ

[2] = molecular target: T2, GST-free tubby-N (tubby N-terminus, 1M-242P) (mouse, UniProt P50586 1-242); assay: phage binding assay
T2 sequence (looked up): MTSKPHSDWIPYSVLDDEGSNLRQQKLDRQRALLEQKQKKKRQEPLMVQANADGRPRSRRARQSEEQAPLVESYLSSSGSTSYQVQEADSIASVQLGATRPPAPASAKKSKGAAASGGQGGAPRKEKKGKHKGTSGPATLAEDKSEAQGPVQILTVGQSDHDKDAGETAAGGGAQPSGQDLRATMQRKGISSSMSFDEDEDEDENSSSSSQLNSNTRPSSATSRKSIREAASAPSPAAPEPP

Binder | binding specificity, clonal phage vs. control phage [1] | binding specificity, clonal phage vs. control phage [2]
B1 | ~7.7 X | ~117 X
B2 | ~37.8 X | ~33.4 X
B3 |  | ~10.3 X
B4 |  | ~53.2 X
B5 | ~32.8 X | ~49 X
